In paper PMC12251713, “The Novel Transcription Factor BnaA01.KAN3 Is Involved in the Regulation of Anthocyanin Accumulation Under Phosphorus Starvation”:

Target: T1, BnaA01.KAN3-His (Brassica napus cv. Zhongshuang 11, UniProt A0A816XN48 1-312)
T1 sequence: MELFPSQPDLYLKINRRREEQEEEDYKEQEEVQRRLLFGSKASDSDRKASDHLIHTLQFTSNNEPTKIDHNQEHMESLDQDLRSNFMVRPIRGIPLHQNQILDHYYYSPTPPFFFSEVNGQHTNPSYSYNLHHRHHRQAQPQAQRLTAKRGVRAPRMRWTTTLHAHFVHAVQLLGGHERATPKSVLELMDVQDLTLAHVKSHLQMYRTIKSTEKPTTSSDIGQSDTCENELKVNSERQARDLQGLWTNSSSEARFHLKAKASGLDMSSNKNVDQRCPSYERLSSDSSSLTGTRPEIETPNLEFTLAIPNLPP
Assay: EMSA; LightShift Chemiluminescent EMSA Kit (Thermo 20148); buffer, salt, pH and temperature not stated
Settings: protein: recombinant; tags: His (pET28a); label: biotin 3' end; blunt

B1: P1BS EMSA probe (dsDNA)
DNA 1: AGACTTTGATTTGCATTATTGCATATACGTAGTAGTATAATGGTACTATC
DNA 2: GATAGTACCATTATACTACTACGTATATGCAATAATGCAAATCAAAGTCT
Does B1 bind?
Result: binds
